The chains are these.
B1: BTBD1 (parent)
chain: TSAEIELPDVEPAAFLALLRFLYS
B2: HSP90AB1 (parent)
chain: EADKNDKAVKDLVVLLFETALLSS

Drawing on the supplement of paper PMC10567573, this text covers protein stability index for 94 variants.
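Also: lentivirally expressed fusions sorted by FACS into six bins by GFP to DsRed ratio, PSI derived from sequencing read proportions per bin multiplied by bin number.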

The variants in the first data set derive from B1. The experiment in a line: protein stability index of a GFP-peptide fusion (GPS, HEK-293T) (PSI 1-6); higher = more stable. The note with it: c terminus: a fixed tail appended.
As for TSAEIELPDVEPAAFLPLLRFLYS [A17P], the protein stability index turned out to be 1.75.
On the same count and under the same terms, as for TSAEIELPDVEPAAFLLLLRFLYS [A17L], the figure is 2.04; as for TSAEIELPDVEPAAFLELLRFLYS [A17E], 2.12.
Same read-out and setting: as for TSAEIELPDVEPAAFLKLLRFLYS [A17K], the figure is 1.88.
Turning to TSAEIELPDVEPAAFLFLLRFLYS [A17F], the protein stability index was determined as 1.98.
Turning to TSAEIELPDVEPAAFLGLLRFLYS [A17G], the protein stability index was determined as 2.27.
For TSAEIELPDVEPAAFLVLLRFLYS [A17V], the protein stability index was found to be 1.99.
With TSAEIELPDVEPAAFLTLLRFLYS [A17T], the protein stability index was found to be 2.38.
Same read-out and setting: as for TSAEIELPDVEPAAFLRLLRFLYS [A17R], the figure is 2.42; as for TSAEIELPDVEPAAFLHLLRFLYS [A17H], 1.67.
For the variant TSAEIELPDVEPAAFLCLLRFLYS [A17C], the protein stability index came out at 1.53.
As for TSAEIELPDVEPAAFDALLRFLYS [L16D], the protein stability index turned out to be 1.88.
Take TSAEIELPDVEPAAFPALLRFLYS [L16P]: the protein stability index was found to be 1.94.
As for TSAEIELPDVEPAAFNALLRFLYS [L16N], the protein stability index was determined as 2.01.
Same read-out and setting: as for TSAEIELPDVEPAAFMALLRFLYS [L16M], the figure is 1.8.
Same read-out and setting: with TSAEIELPDVEPAAFWALLRFLYS [L16W] the figure was 1.96.
Same read-out and setting: as for TSAEIELPDVEPAAFKALLRFLYS [L16K], the figure is 1.47; as for TSAEIELPDLEPAAFLALLRFLYS [V10L], 1.56.
With TSAEIELPDAEPAAFLALLRFLYS [V10A], the protein stability index amounted to 1.8.
TSAEIELPDKEPAAFLALLRFLYS [V10K]: the protein stability index is 1.69.
On the same count and under the same terms, as for TSAQIELPDVEPAAFLALLRFLYS [E4Q], the figure is 2.14.
Take TSAKIELPDVEPAAFLALLRFLYS [E4K]: the protein stability index was determined as 1.17.
Same read-out and setting: as for TSACIELPDVEPAAFLALLRFLYS [E4C], the figure is 1.8.
In the case of TSAIIELPDVEPAAFLALLRFLYS [E4I], the protein stability index was 2.07.
Turning to TSALIELPDVEPAAFLALLRFLYS [E4L], the protein stability index amounted to 1.91.
The same measure, in the same setting: with TSASIELPDVEPAAFLALLRFLYS [E4S] the figure was 1.45; with TSARIELPDVEPAAFLALLRFLYS [E4R], 1.59.
As to TSAFIELPDVEPAAFLALLRFLYS [E4F], the protein stability index stood at 2.24.
Regarding TSAVIELPDVEPAAFLALLRFLYS [E4V], the protein stability index is 1.55.
On the same count and under the same terms, with TSAAIELPDVEPAAFLALLRFLYS [E4A] the figure was 1.84.
With TSAEIELPDVEPTAFLALLRFLYS [A13T], the protein stability index is 2.17.
Same read-out and setting: with TSAEIELPDVEPLAFLALLRFLYS [A13L] the figure was 1.81; with TSAEIELPDVEPPAFLALLRFLYS [A13P], 2.05; with TSAEIELPDVEPQAFLALLRFLYS [A13Q], 1.76.
For TSAEIELPDVEPIAFLALLRFLYS [A13I], the protein stability index was 1.8.
For the variant TSAEIELPDVEPRAFLALLRFLYS [A13R], the protein stability index was 1.73.
Take TSAEIELPDVEPNAFLALLRFLYS [A13N]: the protein stability index was 2.5.
Still for that read-out and setting: with TSAEIELPDVEPDAFLALLRFLYS [A13D] the figure was 2.02.
As for TSAEIELPDVEPAAFLALLRFLCS [Y23C], the protein stability index is 1.79.
Turning to TSAEIELPDVEPAAFLALLRFLES [Y23E], the protein stability index was determined as 1.9.
Take TSAEIELPDVEPAAFLALLRFLVS [Y23V]: the protein stability index was 2.37.
Still for that read-out and setting: as for TSAEIELPDVEPAAFLALLRFLQS [Y23Q], the figure is 2.21; as for TSAEIELPDVEPAAFLALLRFLDS [Y23D], 1.49; as for TSAEIELPDVEPACFLALLRFLYS [A14C], 1.84.
Same read-out and setting: as for TSAEIELPDVEPALFLALLRFLYS [A14L], the figure is 1.4; as for TSAEIELPDVEPAVFLALLRFLYS [A14V], 2.28; as for TSAEIELPDVEPATFLALLRFLYS [A14T], 1.8.
Still for that read-out and setting: with TSAEIELPDVEPAYFLALLRFLYS [A14Y] the figure was 1.8.
For TSAEIELPDVEPAIFLALLRFLYS [A14I], the protein stability index came out at 1.72.
With TSAEIELPDVEPAAFLAALRFLYS [L18A], the protein stability index was found to be 1.08.
For TSAEIELPDVEPAAFLAYLRFLYS [L18Y], the protein stability index came to 1.59.
The same measure, in the same setting: with TSAEIELPDVEPAAFLAGLRFLYS [L18G] the figure was 1.86; with TSAEIELPDVEPAAFLADLRFLYS [L18D], 2.64; with TSAEIELPDVEPAAFLANLRFLYS [L18N], 1.57.
On to TSAEIELPDVEPAAFLACLRFLYS [L18C], for which the protein stability index was 1.77.
Consider TSAEIEAPDVEPAAFLALLRFLYS [L7A], for which the protein stability index worked out at 1.88.
The same measure, in the same setting: with TSAEIEFPDVEPAAFLALLRFLYS [L7F] the figure was 1.96; with TSAEIEPPDVEPAAFLALLRFLYS [L7P], 2.3; with TSAEIEYPDVEPAAFLALLRFLYS [L7Y], 2.05.
Same read-out and setting: with TSAEIEMPDVEPAAFLALLRFLYS [L7M] the figure was 2.08.
Same read-out and setting: with TSAEIEQPDVEPAAFLALLRFLYS [L7Q] the figure was 1.96; with TSAEIEKPDVEPAAFLALLRFLYS [L7K], 2.31; with TSAEIEVPDVEPAAFLALLRFLYS [L7V], 1.98.
Regarding TSAEIEHPDVEPAAFLALLRFLYS [L7H], the protein stability index came to 2.22.
In the case of TSAERELPDVEPAAFLALLRFLYS [I5R], the protein stability index is 2.55.
For the variant TSAEFELPDVEPAAFLALLRFLYS [I5F], the protein stability index was found to be 1.78.
Same read-out and setting: with TSAECELPDVEPAAFLALLRFLYS [I5C] the figure was 1.77.
On the same count and under the same terms, with TSAEVELPDVEPAAFLALLRFLYS [I5V] the figure was 1.75; with TSAEDELPDVEPAAFLALLRFLYS [I5D], 2.44.
On the same count and under the same terms, with TSAEYELPDVEPAAFLALLRFLYS [I5Y] the figure was 1.95; with TSAEWELPDVEPAAFLALLRFLYS [I5W], 2; with TSAEPELPDVEPAAFLALLRFLYS [I5P], 1.68.

In the next data set the parent is B2. The description is as above. To be noted: c terminus: a fixed tail appended.
Consider WADKNDKAVKDLVVLLFETALLSS [E1W], for which the protein stability index was found to be 2.3.
As for HADKNDKAVKDLVVLLFETALLSS [E1H], the protein stability index came to 1.94.
For IADKNDKAVKDLVVLLFETALLSS [E1I], the protein stability index was determined as 2.56.
Same read-out and setting: as for LADKNDKAVKDLVVLLFETALLSS [E1L], the figure is 2.02; as for RADKNDKAVKDLVVLLFETALLSS [E1R], 1.69.
Same read-out and setting: with NADKNDKAVKDLVVLLFETALLSS [E1N] the figure was 1.89; with GADKNDKAVKDLVVLLFETALLSS [E1G], 2.37.
On the same count and under the same terms, as for KADKNDKAVKDLVVLLFETALLSS [E1K], the figure is 1.61; as for VADKNDKAVKDLVVLLFETALLSS [E1V], 2.54.
For SADKNDKAVKDLVVLLFETALLSS [E1S], the protein stability index was 1.78.
The same measure, in the same setting: as for PADKNDKAVKDLVVLLFETALLSS [E1P], the figure is 1.95.
The same measure, in the same setting: as for FADKNDKAVKDLVVLLFETALLSS [E1F], the figure is 1.36; as for TADKNDKAVKDLVVLLFETALLSS [E1T], 2.58; as for MADKNDKAVKDLVVLLFETALLSS [E1M], 2.69.
The same measure, in the same setting: as for DADKNDKAVKDLVVLLFETALLSS [E1D], the figure is 1.86; as for AADKNDKAVKDLVVLLFETALLSS [E1A], 1.45.
For CADKNDKAVKDLVVLLFETALLSS [E1C], the protein stability index worked out at 1.88.
On the same count and under the same terms, with QADKNDKAVKDLVVLLFETALLSS [E1Q] the figure was 1.87; with EFDKNDKAVKDLVVLLFETALLSS [A2F], 2.04.
As for EDDKNDKAVKDLVVLLFETALLSS [A2D], the protein stability index is 2.04.
In the case of EGDKNDKAVKDLVVLLFETALLSS [A2G], the protein stability index worked out at 1.33.
For the variant ECDKNDKAVKDLVVLLFETALLSS [A2C], the protein stability index stood at 1.74.
